Molecular target: A. fumigatus CCAAT binding complex (CBC) consisting of HapB(230-299), HapC(40-137) and HapE(47-164) (A. fumigatus)
Test: SPR

B1: HapX(24-158) (domain or fragment)
chain: SPSPGPGTPGSITSKEWVIPPRPKPGRKPATDTPPTKRKAQNRAAQRAFRERRAARVNELEEQIKKIEDEHEIHIAAFKEQITNLSREVEQCRSEMTWWRDRCHALEKEVSVERSAKEAIVKEFRSSLSDREAVR
B1 gave a Kd of 16.2 nM.

— publication PMC4954732 (2016)
